# Measured values reported in publication PMC11073785, “YeeD is an essential partner for YeeE-mediated thiosulfate uptake in bacteria and regulates thiosulfate ion decomposition” (PLOS Biology, 2024).
# B1: Spirochaeta thermophila YeeE [Spirochaeta thermophila] / Spirochaeta thermophila YeeD (WT), His6-tagged [Spirochaeta thermophila] (parent complex)
# chain 1: MIWTGLLVGFLFGIVLQRGRICFNSAFRDVLLFKDNYLFKLAVFTLALEMILFVLLSQVGLMQMNPKPLNLVGNIIGGFVFGLGMVLAGGCASGVTYRVGEGLTTAWFAALFYGLGAYATKSGAFSWWLSWVGQFKSPLSVEESAYYVKGAGPTISSVLGLNPWIPALVIAALFILWAFGTKTTSRETKFNWKIASVCLALVAGLGFITSTLSGRKYGLGITGGWINLFQGFLTNSPLNWEGLEIVGIILGAGVAAAVAGEFKLRMPKNPVTYLQVGIGGLLMGIGAVTAGGCNIGHFLTGVPQLALSSWLASIFFILGNWTMAWILF
# chain 2: MANYQVSKEIDVRGEVCPIPDVEAKRAVQSANDGEIILVRIDYPLSKERIPETVKKLGSEVLEIEEAAPGEWNIYIKVKK
# Variants of: B1
# Assay: BLI; Octet buffer (20 mM Tris-HCl (pH 8.0), 300 mM NaCl, 0.1% (w/v) DDM, 1 mM β-ME); response at 120 s; parent: 1.8; read off a plot
row,response [nm],Variant
1,~0.14,chain 2 MANYQVSKEIDVRGEVAPIPDVEAKRAVQSANDGEIILVRIDYPLSKERIPETVKKLGSEVLEIEEAAPGEWNIYIKVKK [chain 2 C17A]
2,~0.04,chain 2 MANYQVSKEIDVRGEVCPIPDVEAKRAVQSANDGEIILVRIAYPLSKERIPETVKKLGSEVLEIEEAAPGEWNIYIKVKK [chain 2 D42A]
